{"source": "paper PMC12218921", "about": "“An adaptive peptide-binding site in ubiquitin receptor hRpn13 revealed by structural studies” (Nature Communications, 2025)", "test_system": "hRpn13 Pru", "experiment": "1H-15N HSQC NMR of 15N-labeled hRpn13 Pru (1–150)", "type": "binding, human", "details": "0.1 mM 15N-labeled protein, 600 MHz, 25 °C, pH 6.5", "data": [{"molecule": "hRpn13_ΔMTT: hRpn13 Pru variant with ENT M1 – T3, ^aG, and ^bP deleted (protein, left off: GST, N-terminal, cleaved, hRpn13 Pru variant with ENT M1 – T3, ^aG, and ^bP deleted) GSSGALFPSLVPGSRGASNKYLVEFRAGKMSLKGTTVTPDKRKGLVYIQQTDDSLIHFCWKDRTSGNVEDDLIIFPDDCEFKRVPQCPSGRVYVLKFKAGSKRLFFWMQEPKTDQDEEHCRKVNEYLNNPPMPGALGASGSSGHELSAL", "values": [{"measurement": "HSQC differences of hRpn13_ΔMTT versus hRpn13 (1–150)", "result": "changes for a subset of amino acids in the Pru helix and proteasome-binding surface"}]}]}
